In patent publication US12233115B2, “Long-acting parathyroid hormone” (Extend Biosciences, Inc., priority 2022, dated 2025):
Read-outs that look alike come from different tables or passages of the source.

Experiments:
Solubility in PBS (A280) = format: physicochemical
Protocol: PEG Length and Counterion Affects Solubility: The solubility of the acetate and carbonate salt form of each compound was determined as follows. For EXT611, EXT606, and EXT608, phosphate buffered saline (PBS) was added to each compound to form a saturated solution. Undissolved compound was removed by centrifugation. The concentration of dissolved compound was determined by measuring the absorbance at 280 nm using an extinction coefficient of 18,600 M^−1 cm^−1. For EXT615, EXT616, and EXT617, solubility was limited practically by the high viscosity imparted by the large PEG moieties. Highly viscous drug formulations are difficult to manipulate and require large needle bore sizes that cause increased injection site pain. PBS was added to EXT615, EXT616, and EXT617 incrementally until a solution was obtained that could be successfully pipetted through a pipet tip with a bore of approximately 1 mm diameter (enlarged by removing the end with a razor blade). The concentration of dissolved compound was determined by measuring the absorbance at 280 nm using an extinction coefficient of 18,600 M^−1 cm^−1. […] For EXT608, the acetate salt was 17.6-fold more soluble than the carbonate salt.

DBP = molecular target: T1, DBP (Homo sapiens, UniProt P02774); details: Norman et al. 2001, p. 51; cited from earlier work
T1 sequence (P02774 17-474): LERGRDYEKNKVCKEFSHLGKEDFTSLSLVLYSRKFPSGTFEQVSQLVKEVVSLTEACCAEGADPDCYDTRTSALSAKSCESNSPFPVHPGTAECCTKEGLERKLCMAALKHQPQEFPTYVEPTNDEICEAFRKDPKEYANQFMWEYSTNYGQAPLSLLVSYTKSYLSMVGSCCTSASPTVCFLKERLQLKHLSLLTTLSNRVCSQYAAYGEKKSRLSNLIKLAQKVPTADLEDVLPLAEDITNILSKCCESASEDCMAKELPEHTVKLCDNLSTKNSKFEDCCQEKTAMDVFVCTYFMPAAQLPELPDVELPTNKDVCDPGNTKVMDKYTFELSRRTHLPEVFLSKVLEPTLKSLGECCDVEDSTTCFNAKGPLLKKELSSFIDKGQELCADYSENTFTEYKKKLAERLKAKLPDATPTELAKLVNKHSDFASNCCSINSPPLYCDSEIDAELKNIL

VDRnuc = details: Norman et al. 2001, p. 51; cited from earlier work
[1] = human, in vivo, cited from earlier work

## C=C1CC[C@H](OCCCNC(=O)CCOCCOCCOCCOCCOCCOCCOCCOCCOCCOCCOCCOCCOCCOCCOCCOCCOCCOCCOCCOCCOCCOCCOCCOCCNC(=O)CCN2C(=O)CC(SC[C@H](NC(=O)[C@H](Cc3ccccc3)NC(=O)[C@H](CC(N)=O)NC(=O)[C@H](Cc3c[nH]cn3)NC(=O)[C@@H](NC(=O)[C@H](CC(=O)O)NC(=O)[C@H](CCC(N)=O)NC(=O)[C@H](CC(C)C)NC(=O)[C@H](CCCCN)NC(=O)[C@H](CCCCN)NC(=O)[C@H](CCCNC(=N)N)NC(=O)[C@H](CC(C)C)NC(=O)[C@H](Cc3c[nH]c4ccccc34)NC(=O)[C@H](CCC(=O)O)NC(=O)[C@@H](NC(=O)[C@H](CCCNC(=N)N)NC(=O)[C@H](CCC(=O)O)NC(=O)[C@H](CCSC)NC(=O)[C@H](CO)NC(=O)[C@H](CC(N)=O)NC(=O)[C@H](CC(C)C)NC(=O)[C@H](Cc3c[nH]cn3)NC(=O)[C@H](CCCCN)NC(=O)CNC(=O)[C@H](CC(C)C)NC(=O)[C@H](CC(N)=O)NC(=O)[C@H](Cc3c[nH]cn3)NC(=O)[C@H](CCSC)NC(=O)[C@H](CC(C)C)NC(=O)[C@H](CCC(N)=O)NC(=O)[C@@H](NC(=O)[C@H](CCC(=O)O)NC(=O)[C@H](CO)NC(=O)[C@@H](NC(=O)[C@@H](N)CO)C(C)C)[C@@H](C)CC)C(C)C)C(C)C)C(N)=O)C2=O)C/C1=C/C=C1\CCC[C@]2(C)[C@@H]([C@H](C)CCCC(C)(C)O)CC[C@@H]12 (some centres unmarked) [EXT606]
Solubility in PBS (A280); acetate salt, read-out: Solubility as Acetate
  solubility: 907 µM
Solubility in PBS (A280); carbonate salt, read-out: Solubility as Carbonate
  solubility: 200 µM

## 25-hydroxyvitamin D [25(OH)D3]
DBP
  fold tighter binding to DBP than 1α,25(OH)2D3: 668 fold

## C=C1/C(=C\C=C2/CCC[C@]3(C)[C@@H]([C@H](C)CCCC(C)(C)O)CC[C@@H]23)C[C@@H](O)C[C@@H]1O [1α,25(OH)2D3, 1,25-dihydroxyvitamin D3]
VDRnuc
  fold tighter binding to VDRnuc than 25(OH)D3: 668 fold

## PTH: Parathyroid hormone, polypeptide containing 84 amino acids (SEQ ID NO:2); literature half-life values
[1]; iv
  plasma half-life: less than 15 minutes
  serum half-life: approximately 5 minutes
[1]; sc
  apparent half-life: 1.5 to 2.5 h
  plasma half-life (estimated): 2 to 3 h
